Among the data in publication PMC9288967 are Kd values, retold here.

For this experiment, the target named is SARS-CoV-2 spike RBD (wild type) (SARS-CoV-2) (UniProt P0DTC2). Briefly: BLI. (In BLI a coated tip is dipped into the sample, and binding shifts an interference pattern.)

Turning to mNb6(108FFY) (VHH), the Kd – broadly, the constant that tells how readily two partners part at equilibrium – worked out at 0.91 nM.
